Data: publication doi:10.1101/2025.03.12.642377 (bioRxiv, 2025)

Biological target: PACRG-mNeonGreen-6xHis (C. reinhardtii, UniProt B1B601 1-307)
Assay: pull-down

B1: FAP20-mRuby3 (His-tag cleaved) (natural protein, C. reinhardtii, UniProt A8IU92 1-190, looked up)
chain: MFKNAFQSGFLSVLYSIGSKPLEIWDKQVSNGHIKRITDADIQSSVLEIMGQNVSTTYITCPADPNKTLGIKLPFLVLIIKNLNKYFSFEVQVLDDKNVRRRFRASNYQSTTRVKPFICTMPMRLDSGWNQIQFNLSDFTRRAYGTNYIETLRVQVHANCRIRRIYFSDRLYSEEELPAEFKLFLPIQKS
binding result: binds
